# Measured values reported in patent US20140363428A1 (Chugai, published 2014).
# Numbering of substitutions follows the chain as printed.
# B1: IgG1-F1262 (antibody)
# heavy: QVQLQESGPGLVKPSETLSLTCAVSGHSISHDHAWSWVRQPPGEGLEWIGFISYSGITNYNPSLQGRVTISRDNSKNTLYLQMNSLRAEDTAVYYCARSLARTTAMDYWGEGTLVTVSSASTKGPSVFPLAPSSKSTSGGTAALGCLVKDYFPEPVTVSWNSGALTSGVHTFPAVLQSSGLYSLSSVVTVPSSSLGTQTYICNVNHKPSNTKVDKKVEPKSCDKTHTCPPCPAPELRGGPKVFLFPPKPKDTLYISRTPEVTCVVVDVSHEDPEVKFNWYVDGVEVHNAKTKPREEQYNSTYRVVSVLTVLHQDWLNGKEYKCKVSNKALPAPIEKTISKAKGQPREPQVYTLPPSRDELTKNQVSLTCLVKGFYPSDIAVEWESNGQPENNYKTTPPVLDSDGSFFLYSKLTVDKSRWQQGNVFSCSVMHEALHYHVTKKELSLSP
# light: not shown
# notes: EU numbering; copies: 2 + 2
# B2: IgG1-F1259 (antibody)
# heavy: B1 heavy with T309Q, Q313A, K440R
# light: not shown
# notes: EU numbering; copies: 2 + 2
# B3: IgG1-F1232 (antibody)
# heavy: B1 heavy with R237L, K241S, E442D
# light: not shown
# notes: EU numbering; copies: 2 + 2
# B4: IgG1-F1165 (antibody)
# heavy: B1 heavy with R237L, P240D, K241S, T252Y, T309Q, V310P, Q313A, K440Q, E442S
# light: not shown
# notes: EU numbering; copies: 2 + 2
# B5: IgG1-F1263 (antibody)
# heavy: B1 heavy with E442D
# light: not shown
# notes: EU numbering; copies: 2 + 2
# B6: IgG1-F1253 (antibody)
# heavy: B1 heavy with T309A, K440R
# light: not shown
# notes: EU numbering; copies: 2 + 2
# B7: IgG1-F1231 (antibody)
# heavy: B1 heavy with R237L, K241S
# light: not shown
# notes: EU numbering; copies: 2 + 2
# B8: IgG1-F1249 (antibody)
# heavy: B1 heavy with T258Q, K440R
# light: not shown
# notes: EU numbering; copies: 2 + 2
# B9: IgG1-F1197 (antibody)
# heavy: B1 heavy with R237L, K241S, S256T, K440R
# light: not shown
# notes: EU numbering; copies: 2 + 2
# B10: IgG1-F1200 (antibody)
# heavy: B1 heavy with R237L, K241S, T252V, S256T, K440R
# light: not shown
# notes: EU numbering; copies: 2 + 2
# B11: IgG1-F1229 (antibody)
# heavy: B1 heavy with R237L, K241S, I255V, K440Q, E442S
# light: not shown
# notes: EU numbering; copies: 2 + 2
# B12: IgG1-F1264 (antibody)
# heavy: B1 heavy with T258A, K440R
# light: not shown
# notes: EU numbering; copies: 2 + 2
# B13: IgG1-F1202 (antibody)
# heavy: B1 heavy with R237L, K241S, T252V, S256T, T258E, K440R
# light: not shown
# notes: EU numbering; copies: 2 + 2
# B14: IgG1-F1185 (antibody)
# heavy: B1 heavy with R237L, K241S, Y254M, T309A, E382A, M430L, Y436S, V438Y, K440Q, E442S
# light: not shown
# notes: EU numbering; copies: 2 + 2
# B15: IgG1-F1256 (antibody)
# heavy: B1 heavy with Q313H, K440R
# light: not shown
# notes: EU numbering; copies: 2 + 2
# B16: IgG1-F1194 (antibody)
# heavy: B1 heavy with R237L, K241S, K440R, K441D
# light: not shown
# notes: EU numbering; copies: 2 + 2
# B17: IgG1-F1206 (antibody)
# heavy: B1 heavy with R237L, K241S, T252V, S256T, T258Q, K440R
# light: not shown
# notes: EU numbering; copies: 2 + 2
# B18: IgG1-F1188 (antibody)
# heavy: B1 heavy with R237L, K241S, Y254M, T309A, E382A, Y436H, V438Y, K440Q, E442S
# light: not shown
# notes: EU numbering; copies: 2 + 2
# B19: IgG1-F1192 (antibody)
# heavy: B1 heavy with R237L, K241S, T439G, K440R
# light: not shown
# notes: EU numbering; copies: 2 + 2
# B20: IgG1-F1230 (antibody)
# heavy: B1 heavy with R237L, K241S, K440R, E442D
# light: not shown
# notes: EU numbering; copies: 2 + 2
# B21: IgG1-F1204 (antibody)
# heavy: B1 heavy with R237L, K241S, S256T, T258Q, K440R
# light: not shown
# notes: EU numbering; copies: 2 + 2
# B22: IgG1-F1270 (antibody)
# heavy: B1 heavy with S256A, E442D
# light: not shown
# notes: EU numbering; copies: 2 + 2
# B23: IgG1-F1243 (antibody)
# heavy: B1 heavy with S256T, K440R
# light: not shown
# notes: EU numbering; copies: 2 + 2
# B24: IgG1-F1252 (antibody)
# heavy: B1 heavy with T252V, S256T, T258Q, K440R
# light: not shown
# notes: EU numbering; copies: 2 + 2
# B25: IgG1-F1161 (antibody)
# heavy: B1 heavy with R237L, K241S, Y254M, I334V, S426N, V438Y, K440Q, E442S
# light: not shown
# notes: EU numbering; copies: 2 + 2
# B26: IgG1-F1178 (antibody)
# heavy: B1 heavy with R237L, K241S, Y254M, V261I, V310F, M430L, Y436N, V438Y, K440Q, E442S
# light: not shown
# notes: EU numbering; copies: 2 + 2
# B27: IgG1-F1164 (antibody)
# heavy: B1 heavy with R237L, P240D, K241S, T252Y, T309Q, Q313A, K440Q, E442S
# light: not shown
# notes: EU numbering; copies: 2 + 2
# B28: IgG1-F1160 (antibody)
# heavy: B1 heavy with R237L, K241S, Y254M, V310F, S426N, V438Y, K440Q, E442S
# light: not shown
# notes: EU numbering; copies: 2 + 2
# B29: IgG1-F1247 (antibody)
# heavy: B1 heavy with T252V, T258E, K440R
# light: not shown
# notes: EU numbering; copies: 2 + 2
# B30: IgG1-F1216 (antibody)
# heavy: B1 heavy with R237L, K241S, L253S, K440Q, E442S
# light: not shown
# notes: EU numbering; copies: 2 + 2
# B31: IgG1-F1203 (antibody)
# heavy: B1 heavy with R237L, K241S, T258Q, K440R
# light: not shown
# notes: EU numbering; copies: 2 + 2
# B32: IgG1-F1208 (antibody)
# heavy: B1 heavy with R237L, K241S, L253A, K440Q, E442S
# light: not shown
# notes: EU numbering; copies: 2 + 2
# B33: IgG1-F1211 (antibody)
# heavy: B1 heavy with R237L, K241S, L253H, K440Q, E442S
# light: not shown
# notes: EU numbering; copies: 2 + 2
# B34: IgG1-F1251 (antibody)
# heavy: B1 heavy with T252V, T258Q, K440R
# light: not shown
# notes: EU numbering; copies: 2 + 2
# B35: IgG1-F1195 (antibody)
# heavy: B1 heavy with R237L, K241S, K440R, L443A
# light: not shown
# notes: EU numbering; copies: 2 + 2
# B36: IgG1-F1217 (antibody)
# heavy: B1 heavy with R237L, K241S, L253T, K440Q, E442S
# light: not shown
# notes: EU numbering; copies: 2 + 2
# B37: IgG1-F1254 (antibody)
# heavy: B1 heavy with T309Q, K440R
# light: not shown
# notes: EU numbering; copies: 2 + 2
# B38: IgG1-F1250 (antibody)
# heavy: B1 heavy with S256T, T258Q, K440R
# light: not shown
# notes: EU numbering; copies: 2 + 2
# B39: IgG1-F1201 (antibody)
# heavy: B1 heavy with R237L, K241S, T252V, T258E, K440R
# light: not shown
# notes: EU numbering; copies: 2 + 2
# B40: IgG1-F1218 (antibody)
# heavy: B1 heavy with R237L, K241S, L253V, K440Q, E442S
# light: not shown
# notes: EU numbering; copies: 2 + 2
# B41: IgG1-F1269 (antibody)
# heavy: B1 heavy with H435D, E442D
# light: not shown
# notes: EU numbering; copies: 2 + 2
# B42: IgG1-F1244 (antibody)
# heavy: B1 heavy with T258E, K440R
# light: not shown
# notes: EU numbering; copies: 2 + 2
# B43: IgG1-F1260 (antibody)
# heavy: B1 heavy with T309Q, Q313H, K440R
# light: not shown
# notes: EU numbering; copies: 2 + 2
# B44: IgG1-F1189 (antibody)
# heavy: B1 heavy with R237L, K241S, H435D, K440R
# light: not shown
# notes: EU numbering; copies: 2 + 2
# B45: IgG1-F1255 (antibody)
# heavy: B1 heavy with Q313A, K440R
# light: not shown
# notes: EU numbering; copies: 2 + 2
# B46: IgG1-F1162 (antibody)
# heavy: B1 heavy with R237L, P240D, K241S, T252Y, K440Q, E442S
# light: not shown
# notes: EU numbering; copies: 2 + 2
# B47: IgG1-F1163 (antibody)
# heavy: B1 heavy with R237L, P240D, K241S, T252Y, T309Q, Q313A, V438Y, K440Q, E442S
# light: not shown
# notes: EU numbering; copies: 2 + 2
# B48: IgG1-F1196 (antibody)
# heavy: B1 heavy with R237L, K241S, K440R, L443E
# light: not shown
# notes: EU numbering; copies: 2 + 2
# B49: IgG1-F1199 (antibody)
# heavy: B1 heavy with R237L, K241S, S256T, T258E, K440R
# light: not shown
# notes: EU numbering; copies: 2 + 2
# B50: IgG1-F1258 (antibody)
# heavy: B1 heavy with T309A, Q313H, K440R
# light: not shown
# notes: EU numbering; copies: 2 + 2
# B51: IgG1-F1257 (antibody)
# heavy: B1 heavy with T309A, Q313A, K440R
# light: not shown
# notes: EU numbering; copies: 2 + 2
# B52: IgG1-F1266 (antibody)
# heavy: B1 heavy with T258N, K440R
# light: not shown
# notes: EU numbering; copies: 2 + 2
# B53: IgG1-F1198 (antibody)
# heavy: B1 heavy with R237L, K241S, T258E, K440R
# light: not shown
# notes: EU numbering; copies: 2 + 2
# B54: IgG1-F1205 (antibody)
# heavy: B1 heavy with R237L, K241S, T252V, T258Q, K440R
# light: not shown
# notes: EU numbering; copies: 2 + 2
# B55: IgG1-F1246 (antibody)
# heavy: B1 heavy with T252V, S256T, K440R
# light: not shown
# notes: EU numbering; copies: 2 + 2
# B56: IgG1-F1207 (antibody)
# heavy: B1 heavy with R237L, K241S, Y254M, I334E, M430L, Y436S, V438Y, K440Q, E442S
# light: not shown
# notes: EU numbering; copies: 2 + 2
# B57: IgG1-F1183 (antibody)
# heavy: B1 heavy with R237L, K241S, Y254M, E382A, M430L, Y436S, V438Y, K440Q, E442S
# light: not shown
# notes: EU numbering; copies: 2 + 2
# B58: IgG1-F1261 (antibody)
# heavy: B1 heavy with K440R, E442D
# light: not shown
# notes: EU numbering; copies: 2 + 2
# B59: IgG1-F1191 (antibody)
# heavy: B1 heavy with R237L, K241S, T439A, K440R
# light: not shown
# notes: EU numbering; copies: 2 + 2
# B60: IgG1-F1265 (antibody)
# heavy: B1 heavy with T258G, K440R
# light: not shown
# notes: EU numbering; copies: 2 + 2
# Molecular target: T1, soluble human FcRn (human, UniProt P55899 24-297; P61769 21-119)
# T1 construct: Heterodimer of FcRn alpha chain and beta2-microglobulin; also called hFcRn
# Assay: SPR (Biacore T100), antibody captured by protein L, hFcRn as analyte, pH 7.0, 25 C;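 also: KD calculated from fitted association and dissociation rate constants of the sensorgrams, protein L amine-coupled to the sensor chip, sodium phosphate running buffer with NaCl and Tween20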
# Procedure: An appropriate amount of protein L (ACTIGEN) was immobilized onto Sensor chip CM4 (GE Healthcare) by the amino coupling method, and the chip was allowed to capture an antibody of interest. Then, diluted FcRn solutions and running buffer (as a reference solution) were injected to allow human FcRn to interact with the antibody captured on the sensor chip. The running buffer used comprised 50 mmol/l sodium phosphate, 150 mmol/l NaCl, and 0.05% (w/v) Tween20 (pH 7.0). FcRn was diluted using each buffer. The chip was regenerated using 10 mmol/l glycine-HCl (pH 1.5). Assays were carried out exclusively at 25 degrees C. The association rate constant ka (1/Ms) and dissociation rate constant kd (1/s), both of which are kinetic parameters, were calculated based on the sensorgrams obtained in the assays, and KD (M) of each antibody for human FcRn was determined from these values. Each parameter was calculated using Biacore T100 Evaluation Software (GE Healthcare).
# T1 sequence (P55899 24-297 limits assumed, chain 1 of 2): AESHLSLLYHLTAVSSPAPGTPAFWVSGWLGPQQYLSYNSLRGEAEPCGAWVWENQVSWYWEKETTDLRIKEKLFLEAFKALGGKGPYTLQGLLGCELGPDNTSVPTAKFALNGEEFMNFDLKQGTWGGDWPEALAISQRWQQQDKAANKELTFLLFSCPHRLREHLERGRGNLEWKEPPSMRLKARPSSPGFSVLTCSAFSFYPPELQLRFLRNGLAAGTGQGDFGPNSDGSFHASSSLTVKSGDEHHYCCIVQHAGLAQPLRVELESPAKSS
# T1 sequence (P61769 21-119 limits assumed, chain 2 of 2): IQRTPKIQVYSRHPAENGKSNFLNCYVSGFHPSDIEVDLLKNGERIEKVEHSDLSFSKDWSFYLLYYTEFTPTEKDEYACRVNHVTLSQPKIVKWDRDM
row,Binder,Kd [nM]
1,B1,130
2,B2,45
3,B3,98
4,B4,16
5,B5,120
6,B6,110
7,B7,97
8,B8,210
9,B9,95
10,B10,130
11,B11,2800
12,B12,130
13,B13,88
14,B14,920
15,B15,160
16,B16,160
17,B17,170
18,B18,1700
19,B19,130
20,B20,110

row,Binder,Kd [nM]
1,B21,120
2,B22,120
3,B23,130
4,B24,230
5,B25,1100
6,B26,870
7,B27,70
8,B28,290
9,B29,150
10,B30,1200
11,B31,150
12,B32,570
13,B33,1200
14,B34,280
15,B35,180
16,B36,1100
17,B37,64
18,B38,170
19,B39,110
20,B40,250

row,Binder,Kd [nM]
1,B41,170
2,B42,100
3,B43,65
4,B44,160
5,B45,110
6,B46,340
7,B47,150
8,B48,150
9,B49,62
10,B50,110
11,B51,78
12,B52,100
13,B53,78
14,B54,200
15,B55,170
16,B56,1100
17,B57,1300
18,B58,140
19,B59,210
20,B60,160
